{
  "source": "the supplement of paper PMC11316812",
  "key": {"MCF7": {"system": "MCF7", "assay": "percentage of EdU-negative (G0-arrested) nuclei per well, 72 h; higher = more G0 arrest", "settings": "reference: sequence is the full UniProt precursor, the tested protein was the secreted form or ectodomain"}, "hTERT-HMEC": {"system": "hTERT-HMEC", "assay": "percentage of EdU-negative (G0-arrested) nuclei per well, 72 h; higher = more G0 arrest", "settings": "reference: sequence is the full UniProt precursor, the tested protein was the secreted form or ectodomain"}, "[1]": {"settings": "protein concentration 0.02025 µM"}, "[2]": {"settings": "protein concentration 0.2025 µM"}, "[3]": {"settings": "protein concentration 0.0225 µM"}, "[4]": {"settings": "protein concentration 0.00725 µM"}, "[5]": {"settings": "protein concentration 0.0725 µM"}, "[6]": {"settings": "protein concentration 0.015525 µM"}, "[7]": {"settings": "protein concentration 0.15525 µM"}},
  "note": "± gives the standard deviation of the averaged measurements.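 Note: secreted proteins added to cultured cells, EdU pulse at the end, nuclei found by Hoechst imaging, EdU status from nuclear versus surrounding ring intensity ratio, PBS as neutral control.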",
  "data": [
    {"sequence": "MRPLLLLALLGWLLLAEAKGDAKPEDNLLVLTVATKETEGFRRFKRSAQFFNYKIQALGLGEDWNVEKGTSAGGGQKVRLLKKALEKHADKEDLVILFADSYDVLFASGPRELLKKFRQARSQVVFSAEELIYPDRRLETKYPVVSDGKRFLGSGGFIGYAPNLSKLVAEWEGQDSDSDQLFYTKIFLDPEKREQINITLDHRCRIFQNLDGALDEVVLKFEMGHVRARNLAYDTLPVLIHGNGPTKLQLNYLGNYIPRFWTFETGCTVCDEGLRSLKGIGDEALPTVLVGVFIEQPTPFVSLFFQRLLRLHYPQKHMRLFIHNHEQHHKAQVEEFLAQHGSEYQSVKLVGPEVRMANADARNMGADLCRQDRSCTYYFSVDADVALTEPNSLRLLIQQNKNVIAPLMTRHGRLWSNFWGALSADGYYARSEDYVDIVQGRRVGVWNVPYISNIYLIKGSALRGELQSSDLFHHSKLDPDMAFCANIRQQDVFMFLTNRHTLGHLLSLDSYRTTHLHNDLWEVFSNPEDWKEKYIHQNYTKALAGKLVETPCPDVYWFPIFTEVACDELVEEMEHFGQWSLGNNKDNRIQGGYENVPTIDIHMNQIGFEREWHKFLLEYIAPMTEKLYPGYYTRAQFDLAFVVRYKPDEQPSLMPHHDASTFTINIALNRVGVDYEGGGCRFLRYNCSIRAPRKGWTLMHPGRLTHYHEGLPTTRGTRYIAVSFVDP", "values": [
      {"measurement": "percentage of EdU-negative", "setting": "MCF7; [1]", "value": "27 ± 1.9", "unit": "%"},
      {"measurement": "percentage of EdU-negative", "setting": "MCF7; [2]", "value": "27.54 ± 0.046", "unit": "%"},
      {"measurement": "percentage of EdU-negative", "setting": "hTERT-HMEC; [1]", "value": "4.5 ± 0.15", "unit": "%"},
      {"measurement": "percentage of EdU-negative", "setting": "hTERT-HMEC; [2]", "value": "7.829 ± 0.054", "unit": "%"}
    ]},
    {"sequence": "MRPLLVLLLLGLAAGSPPLDDNKIPSLCPGHPGLPGTPGHHGSQGLPGRDGRDGRDGAPGAPGEKGEGGRPGLPGPRGDPGPRGEAGPAGPTGPAGECSVPPRSAFSAKRSESRVPPPSDAPLPFDRVLVNEQGHYDAVTGKFTCQVPGVYYFAVHATVYRASLQFDLVKNGESIASFFQFFGGWPKPASLSGGAMVRLEPEDQVWVQVGVGDYIGIYASIKTDSTFSGFLVYSDWHSSPVFA [Q9BXJ0]", "values": [
      {"measurement": "percentage of EdU-negative", "setting": "MCF7; [3]", "value": "23.7 ± 0.35", "unit": "%"},
      {"measurement": "percentage of EdU-negative", "setting": "MCF7; protein concentration 0.225 µM", "value": "24.3 ± 0.42", "unit": "%"},
      {"measurement": "percentage of EdU-negative", "setting": "hTERT-HMEC; [3]", "value": "5.51 ± 0.91", "unit": "%"},
      {"measurement": "percentage of EdU-negative", "setting": "hTERT-HMEC; protein concentration 0.225 µM", "value": "6.26 ± 0.1", "unit": "%"}
    ]},
    {"sequence": "MRPPACWWLLAPPALLALLTCSLAFGLASEDTKKEVKQSQDLEKSGISRKNDIDLKGIVFVIQSQSNSFHAKRAEQLKKSILKQAADLTQELPSVLLLHQLAKQEGAWTILPLLPHFSVTYSRNSSWIFFCEEETRIQIPKLLETLRRYDPSKEWFLGKALHDEEATIIHHYAFSENPTVFKYPDFAAGWALSIPLVNKLTKRLKSESLKSDFTIDLKHEIALYIWDKGGGPPLTPVPEFCTNDVDFYCATTFHSFLPLCRKPVKKKDIFVAVKTCKKFHGDRIPIVKQTWESQASLIEYYSDYTENSIPTVDLGIPNTDRGHCGKTFAILERFLNRSQDKTAWLVIVDDDTLISISRLQHLLSCYDSGEPVFLGERYGYGLGTGGYSYITGGGGMVFSREAVRRLLASKCRCYSNDAPDDMVLGMCFSGLGIPVTHSPLFHQARPVDYPKDYLSHQVPISFHKHWNIDPVKVYFTWLAPSDEDKARQETQKGFREEL [Q6Y288]", "values": [
      {"measurement": "percentage of EdU-negative", "setting": "MCF7; [3]", "value": "23.9 ± 0.6", "unit": "%"},
      {"measurement": "percentage of EdU-negative", "setting": "MCF7; protein concentration 0.225 µM", "value": "28.2 ± 2.5", "unit": "%"},
      {"measurement": "percentage of EdU-negative", "setting": "hTERT-HMEC; [3]", "value": "4.96 ± 0.058", "unit": "%"},
      {"measurement": "percentage of EdU-negative", "setting": "hTERT-HMEC; protein concentration 0.225 µM", "value": "9.95 ± 0.45", "unit": "%"}
    ]},
    {"sequence": "MRPPGFRNFLLLASSLLFAGLSAVPQSFSPSLRSWPGAACRLSRAESERRCRAPGQPPGAALCHGRGRCDCGVCICHVTEPGMFFGPLCECHEWVCETYDGSTCAGHGKCDCGKCKCDQGWYGDACQYPTNCDLTKKKSNQMCKNSQDIICSNAGTCHCGRCKCDNSDGSGLVYGKFCECDDRECIDDETEEICGGHGKCYCGNCYCKAGWHGDKCEFQCDITPWESKRRCTSPDGKICSNRGTCVCGECTCHDVDPTGDWGDIHGDTCECDERDCRAVYDRYSDDFCSGHGQCNCGRCDCKAGWYGKKCEHPQSCTLSAEESIRKCQGSSDLPCSGRGKCECGKCTCYPPGDRRVYGKTCECDDRRCEDLDGVVCGGHGTCSCGRCVCERGWFGKLCQHPRKCNMTEEQSKNLCESADGILCSGKGSCHCGKCICSAEEWYISGEFCDCDDRDCDKHDGLICTGNGICSCGNCECWDGWNGNACEIWLGSEYP", "values": [
      {"measurement": "percentage of EdU-negative", "setting": "MCF7; [4]", "value": "26.1 ± 1.1", "unit": "%"},
      {"measurement": "percentage of EdU-negative", "setting": "MCF7; [5]", "value": "24.7 ± 1.8", "unit": "%"},
      {"measurement": "percentage of EdU-negative", "setting": "hTERT-HMEC; [4]", "value": "4.34 ± 0.65", "unit": "%"},
      {"measurement": "percentage of EdU-negative", "setting": "hTERT-HMEC; [5]", "value": "6.33 ± 0.52", "unit": "%"}
    ]},
    {"sequence": "MRPPQCLLHTPSLASPLLLLLLWLLGGGVGAEGREDAELLVTVRGGRLRGIRLKTPGGPVSAFLGIPFAEPPMGPRRFLPPEPKQPWSGVVDATTFQSVCYQYVDTLYPGFEGTEMWNPNRELSEDCLYLNVWTPYPRPTSPTPVLVWIYGGGFYSGASSLDVYDGRFLVQAERTVLVSMNYRVGAFGFLALPGSREAPGNVGLLDQRLALQWVQENVAAFGGDPTSVTLFGESAGAASVGMHLLSPPSRGLFHRAVLQSGAPNGPWATVGMGEARRRATQLAHLVGCPPGGTGGNDTELVACLRTRPAQVLVNHEWHVLPQESVFRFSFVPVVDGDFLSDTPEALINAGDFHGLQVLVGVVKDEGSYFLVYGAPGFSKDNESLISRAEFLAGVRVGVPQVSDLAAEAVVLHYTDWLHPEDPARLREALSDVVGDHNVVCPVAQLAGRLAAQGARVYAYVFEHRASTLSWPLWMGVPHGYEIEFIFGIPLDPSRNYTAEEKIFAQRLMRYWANFARTGDPNEPRDPKAPQWPPYTAGAQQYVSLDLRPLEVRRGLRAQACAFWNRFLPKLLSATDTLDEAERQWKAEFHRWSSYMVHWKNQFDHYSKQDRCSDL", "values": [
      {"measurement": "percentage of EdU-negative", "setting": "MCF7; [4]", "value": "25.5 ± 3.2", "unit": "%"},
      {"measurement": "percentage of EdU-negative", "setting": "MCF7; [5]", "value": "27.8 ± 2.5", "unit": "%"},
      {"measurement": "percentage of EdU-negative", "setting": "hTERT-HMEC; [4]", "value": "4.96 ± 0.24", "unit": "%"},
      {"measurement": "percentage of EdU-negative", "setting": "hTERT-HMEC; [5]", "value": "8.871 ± 0.06", "unit": "%"}
    ]},
    {"sequence": "MRPQELPRLAFPLLLLLLLLLPPPPCPAHSATRFDPTWESLDARQLPAWFDQAKFGIFIHWGVFSVPSFGSEWFWWYWQKEKIPKYVEFMKDNYPPSFKYEDFGPLFTAKFFNANQWADIFQASGAKYIVLTSKHHEGFTLWGSEYSWNWNAIDEGPKRDIVKELEVAIRNRTDLRFGLYYSLFEWFHPLFLEDESSSFHKRQFPVSKTLPELYELVNNYQPEVLWSDGDGGAPDQYWNSTGFLAWLYNESPVRGTVVTNDRWGAGSICKHGGFYTCSDRYNPGHLLPHKWENCMTIDKLSWGYRREAGISDYLTIEELVKQLVETVSCGGNLLMNIGPTLDGTISVVFEERLRQMGSWLKVNGEAIYETHTWRSQNDTVTPDVWYTSKPKEKLVYAIFLKWPTSGQLFLGHPKAILGATEVKLLGHGQPLNWISLEQNGIMVELPQLTIHQMPCKWGWALALTNVI [Q9BTY2]", "values": [
      {"measurement": "percentage of EdU-negative", "setting": "MCF7; [6]", "value": "22.7 ± 0.71", "unit": "%"},
      {"measurement": "percentage of EdU-negative", "setting": "MCF7; [7]", "value": "27.2 ± 2.1", "unit": "%"},
      {"measurement": "percentage of EdU-negative", "setting": "hTERT-HMEC; [6]", "value": "4.67 ± 0.2", "unit": "%"},
      {"measurement": "percentage of EdU-negative", "setting": "hTERT-HMEC; [7]", "value": "5.55 ± 0.98", "unit": "%"}
    ]},
    {"sequence": "MRPQGPAASPQRLRGLLLLLLLQLPAPSSASEIPKGKQKAQLRQREVVDLYNGMCLQGPAGVPGRDGSPGANGIPGTPGIPGRDGFKGEKGECLRESFEESWTPNYKQCSWSSLNYGIDLGKIAECTFTKMRSNSALRVLFSGSLRLKCRNACCQRWYFTFNGAECSGPLPIEAIIYLDQGSPEMNSTINIHRTSSVEGLCEGIGAGLVDVAIWVGTCSDYPKGDASTGWNSVSRIIIEELPK [Q96CG8]", "values": [
      {"measurement": "percentage of EdU-negative", "setting": "MCF7; [3]", "value": "25.9 ± 1.8", "unit": "%"},
      {"measurement": "percentage of EdU-negative", "setting": "MCF7; protein concentration 0.225 µM", "value": "22.2 ± 3.5", "unit": "%"},
      {"measurement": "percentage of EdU-negative", "setting": "hTERT-HMEC; [3]", "value": "5.305 ± 0.023", "unit": "%"},
      {"measurement": "percentage of EdU-negative", "setting": "hTERT-HMEC; protein concentration 0.225 µM", "value": "4.81 ± 1.6", "unit": "%"}
    ]}
  ]
}
